US20200102387A1 (CELGENE, published 2020)

What was measured:
FcγR1 (CD64) = molecular target: T1, FcγR1 (CD64) (human, UniProt P12314 16-374); test: cell binding, FcγR-engineered HEK293 cells
T1 construct: whole, on cells

FcγR2A (CD32aH131) = molecular target: T2, FcγR2A (CD32aH131) (human, UniProt P12318 34-317); test: cell binding, FcγR-engineered HEK293 cells
T2 construct: whole, on cells
T2 sequence (looked up): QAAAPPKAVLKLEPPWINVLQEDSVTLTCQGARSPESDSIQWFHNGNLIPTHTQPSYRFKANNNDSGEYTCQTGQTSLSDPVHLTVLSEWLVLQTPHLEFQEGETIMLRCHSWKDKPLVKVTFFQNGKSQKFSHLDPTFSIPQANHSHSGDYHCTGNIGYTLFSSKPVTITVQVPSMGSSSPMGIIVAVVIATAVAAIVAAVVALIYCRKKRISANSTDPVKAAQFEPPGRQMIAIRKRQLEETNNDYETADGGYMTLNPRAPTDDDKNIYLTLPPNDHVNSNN

FcγR2A (CD32aR131) = molecular target: T3, FcγR2A (CD32aR131) (human, UniProt P12318 34-317); test: cell binding, FcγR-engineered HEK293 cells
T3 construct: whole, on cells
T3 sequence (looked up): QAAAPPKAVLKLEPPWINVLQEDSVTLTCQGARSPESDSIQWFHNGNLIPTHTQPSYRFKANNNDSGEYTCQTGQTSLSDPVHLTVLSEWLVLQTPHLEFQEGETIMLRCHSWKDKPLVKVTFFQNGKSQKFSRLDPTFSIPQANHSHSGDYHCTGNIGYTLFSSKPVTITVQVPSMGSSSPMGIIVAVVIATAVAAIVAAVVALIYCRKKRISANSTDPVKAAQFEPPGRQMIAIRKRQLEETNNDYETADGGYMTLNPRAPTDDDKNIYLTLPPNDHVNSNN

FcγR2B = molecular target: T4, FcγR2B (human, UniProt P31994 43-310); test: cell binding, FcγR-engineered HEK293 cells
T4 construct: whole, on cells
T4 sequence (looked up): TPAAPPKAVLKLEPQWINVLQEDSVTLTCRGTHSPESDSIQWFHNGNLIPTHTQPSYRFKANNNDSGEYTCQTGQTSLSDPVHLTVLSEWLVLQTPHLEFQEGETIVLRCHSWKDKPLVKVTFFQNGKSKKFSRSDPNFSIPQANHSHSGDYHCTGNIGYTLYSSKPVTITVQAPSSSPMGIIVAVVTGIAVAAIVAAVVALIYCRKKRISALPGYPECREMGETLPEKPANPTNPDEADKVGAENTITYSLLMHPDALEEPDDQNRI

FcγR3A (CD16aV158) = molecular target: T5, FcγR3A (CD16aV158) (human, UniProt P08637 17-254); test: cell binding, FcγR-engineered HEK293 cells
T5 construct: whole, on cells

FcγR3A (CD16aF158) = molecular target: T6, FcγR3A (CD16aF158) (human, UniProt P08637 17-254); test: cell binding, FcγR-engineered HEK293 cells
T6 construct: whole, on cells

[1] = molecular target: T7, extracellular domain of SIRPα v1-DLN (e.g. SIRPα1) (human, UniProt P78324 31-373); test: SPR Biacore T200, antibody captured on Protein A chip
T7 construct: also called hSIRPα - ECD (v1)

[2] = molecular target: T8, SIRPβ extracellular domain (human, UniProt O00241 30-371); test: as above
T8 construct: also called hSIRPβ - ECD
T8 chain: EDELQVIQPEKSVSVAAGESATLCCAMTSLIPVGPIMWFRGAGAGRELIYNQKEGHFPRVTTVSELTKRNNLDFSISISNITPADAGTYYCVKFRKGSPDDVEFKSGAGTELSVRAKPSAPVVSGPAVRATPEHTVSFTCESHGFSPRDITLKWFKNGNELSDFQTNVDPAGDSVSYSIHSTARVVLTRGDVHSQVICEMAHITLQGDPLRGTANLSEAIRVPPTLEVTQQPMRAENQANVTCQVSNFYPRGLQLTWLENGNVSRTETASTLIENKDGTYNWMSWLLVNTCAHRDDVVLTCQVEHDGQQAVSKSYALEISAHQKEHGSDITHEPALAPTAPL

[3] = molecular target: T9, SIRPγ extracellular domain (human, UniProt Q9P1W8 29-360); test: as above
T9 construct: also called hSIRPγ - ECD

[4] = molecular target: T10, cynomolgus SIRPα on cells (cynomolgus, UniProt P78324 31-373 (human entry)); test: flow cytometry, cyno SIRPα-CHO cells, anti-human IgG-AF647 detection
T10 construct: also called cyno SIRPα-CHO; Cyno SIRPα-CHO-K1; not shown: Transmembrane and cytoplasmic region of cynomolgus SIRPα
T10 chain: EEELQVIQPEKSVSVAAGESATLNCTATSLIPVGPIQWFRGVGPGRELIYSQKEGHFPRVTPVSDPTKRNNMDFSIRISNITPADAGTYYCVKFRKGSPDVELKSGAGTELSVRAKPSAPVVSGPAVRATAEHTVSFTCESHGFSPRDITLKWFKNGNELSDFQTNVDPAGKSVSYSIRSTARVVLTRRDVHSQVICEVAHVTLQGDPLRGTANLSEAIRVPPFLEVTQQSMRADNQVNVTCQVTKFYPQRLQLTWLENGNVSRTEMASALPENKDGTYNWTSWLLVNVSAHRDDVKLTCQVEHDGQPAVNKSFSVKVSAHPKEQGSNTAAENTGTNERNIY

[5] = molecular target: T11, recombinant SIRPα protein (Novoprotein, catalog number C385) (human, UniProt P78324 31-370); test: SPR Biacore T200 competition in solution, SIRPα 20 nM, competitor immobilized CD47-ECD
T11 construct: also called human recombinant SIRPα protein; SIRPα antigen

[6] = molecular target: T7, extracellular domain of SIRPα v1-DLN …; test: SPR Biacore T200, antibody on Protein A chip, 1:1 Langmuir fit; comparative Biacore study of Table 30, a separate experiment from Table 15

- EC50 (FcγR1 (CD64)): 0.79 nM
- EC50 (FcγR2A (CD32aH131)): 200 nM
- EC50 (FcγR2A (CD32aR131)): 194 nM
- EC50 (FcγR2B): 2480 nM
- EC50 (FcγR3A (CD16aV158)): 795 nM
- EC50 (FcγR3A (CD16aF158)): 1200 nM
- Kd [1]: 0.0152 nM
- koff [1]: 0.000118 s⁻¹
- kon [1]: 7.75e+06 M⁻¹ s⁻¹
- Kd [2]: 12.1 nM
- koff [2]: 0.000614 s⁻¹
- kon [2]: 50600 M⁻¹ s⁻¹
- Kd [3]: 0.0101 nM
- koff [3]: 0.000188 s⁻¹
- kon [3]: 1.71e+07 M⁻¹ s⁻¹
- EC50 [4]: 1.9 nM
- IC50 [5]: 12.6 nM
- Kd [6]: 0.0923 nM
B1: SIRPAB-11-K322A (antibody, human IgG1, kappa)
light: DIQMTQSPSSVSASVGDRVTITCRASQGISSWLAWYQQKPGKAPKLLIYAASNLQSGVPSRFSGSGSGTDFTLTISSLQPEDFATYYCQQGASFPITFGGGTKVEIKRTVAAPSVFIFPPSDEQLKSGTASVVCLLNNFYPREAKVQWKVDNALQSGNSQESVTEQDSKDSTYSLSSTLTLSKADYEKHKVYACEVTHQGLSSPVTKSFNRGEC
heavy: not shown
notes: human IgG1 with K322A (EU numbering); also called SIRPAB-11-IgG1-K322A; SIRPAB-11-K322A-AlexaFluor647
